Key:
[1] = biological target: T1, Anti-CD28 Fab (SEQ ID NOs: 202, 203); experiment: phage ELISA on captured biotinylated Fab;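 further: wells preblocked with or without CD28 antigen, then clonal phage supernatant added briefly, washed, and bound phage read out by ELISA using HRP-linked anti-M13 antibody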
T1 construct: biotinylated and captured on neutravidin coated plates in the phage ELISA
Description: (§1) Clonal phage were harvested as crude supernatants and screened via standard ELISAs. […] Prior to the addition of clonal phage, wells were incubated with blocking buffer and CD28 antigen or blocking buffer alone. Without washing or aspirating, clonal phage supernatants were then added to the wells and incubated for a short time. Wells were then washed followed by detection of bound phage using a horse radish conjugated anti-M13 antibody.

[2] = biological target: T2, anti-CD28 Fab (SEQ ID NOs: 202, 203); experiment: phage binding ELISA; biotinylated Fab on neutravidin plate;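 further: clonal phage supernatants added to Fab wells pretreated with CD28 antigen or with blocking buffer only, bound phage read out via HRP-linked anti-M13 antibody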
T2 construct: biotinylated and captured on neutravidin coated plates in the phage ELISA
T2 sequence (VH, as listed by the source, chain 1 of 2): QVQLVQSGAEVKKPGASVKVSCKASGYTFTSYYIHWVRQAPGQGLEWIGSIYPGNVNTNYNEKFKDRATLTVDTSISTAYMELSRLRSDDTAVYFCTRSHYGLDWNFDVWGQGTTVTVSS
T2 sequence (VL, as listed by the source, chain 2 of 2): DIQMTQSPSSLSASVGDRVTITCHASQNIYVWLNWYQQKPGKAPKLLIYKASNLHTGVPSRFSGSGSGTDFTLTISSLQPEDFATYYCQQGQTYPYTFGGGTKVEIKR
Description: as §1

T1 sequence (VH, as listed by the source, chain 1 of 2): as the sequence (VH, as listed by the source, chain 1 of 2) above
T1 sequence (VL, as listed by the source, chain 2 of 2): as the sequence (VL, as listed by the source, chain 2 of 2) above

## YCEGHRPEYMQKCL [Phage-249]
[1]
  Anti-CD28 Fab signal: 2.03

## YCEGHSAEYMLKCL [Phage-401]
[2]
  Anti-CD28 Fab (SEQ ID NOs: 202, 203) signal: 1.75

## YCSGHSAEYMLKCL [Phage-411]
[2]
  Anti-CD28 Fab (SEQ ID NOs: 202, 203) signal: 1.73

## YCDGHVEEYLYKCL [Phage-310]
[2]
  Anti-CD28 Fab (SEQ ID NOs: 202, 203) signal: 1.9

## YCEGHSLEYMGKCL [Phage-253]
[1]
  Anti-CD28 Fab signal: 2.02

## YCEGHAPQYIAKCL [Phage-246]
[1]
  Anti-CD28 Fab signal: 2.03

## YCEGHLPQYLQKCL [Phage-176]
[1]
  Anti-CD28 Fab signal: 2.16

## YCDGHLPMYFAKCM [Phage-351]
[2]
  Anti-CD28 Fab (SEQ ID NOs: 202, 203) signal: 1.83

## YCAGHAPEYMQKCL [Phage-174]
[1]
  Anti-CD28 Fab signal: 2.16

## YCAGHLPEYMMKCL [Phage-248]
[1]
  Anti-CD28 Fab signal: 2.03

## YCAGHAPEYIQKCL [Phage-172]
[1]
  Anti-CD28 Fab signal: 2.17

## YCEGHAAEYMWKCL [Phage-353]
[2]
  Anti-CD28 Fab (SEQ ID NOs: 202, 203) signal: 1.83

## YCEGHAQEYMSKCL [Phage-439]
[2]
  Anti-CD28 Fab (SEQ ID NOs: 202, 203) signal: 1.7

## YCDGHLSEYMAKCL [Phage-424]
[2]
  Anti-CD28 Fab (SEQ ID NOs: 202, 203) signal: 1.72

## YCDGHASEYMAKCL [Phage-407]
[2]
  Anti-CD28 Fab (SEQ ID NOs: 202, 203) signal: 1.75

## YCDGHSHEYMEKCL [Phage-257]
[1]
  Anti-CD28 Fab signal: 2.01

## YCDGHEAQYMSKCL [Phage-256]
[1]
  Anti-CD28 Fab signal: 2.01

## YCEGHLPEYMQKCL [Phage-404]
[2]
  Anti-CD28 Fab (SEQ ID NOs: 202, 203) signal: 1.75

## YCSGHLPEYMQKCL [Phage-403]
[2]
  Anti-CD28 Fab (SEQ ID NOs: 202, 203) signal: 1.75

## YCSGHLPEYMGKCL [Phage-417]
[2]
  Anti-CD28 Fab (SEQ ID NOs: 202, 203) signal: 1.73

## YCEGHLPDYMQKCL [Phage-412]
[2]
  Anti-CD28 Fab (SEQ ID NOs: 202, 203) signal: 1.73

## YCEGHLSEYMAKCL [Phage-284]
[1]
  Anti-CD28 Fab signal: 1.94

## YCDGHLIEYMYKCL [Phage-278]
[1]
  Anti-CD28 Fab signal: 1.95

## YCDGHLKEYQEKCL [Phage-299]
[1]
  Anti-CD28 Fab signal: 1.91

## YCEGHAREHMAKCL [Phage-250]
[1]
  Anti-CD28 Fab signal: 2.02

## YCEGHSPMYMQKCM [Phage-355]
[2]
  Anti-CD28 Fab (SEQ ID NOs: 202, 203) signal: 1.83

## YCDGHSQEYMWKCL [Phage-305]
[2]
  Anti-CD28 Fab (SEQ ID NOs: 202, 203) signal: 1.9

## YCDGHSQEYMLKCL [Phage-392]
[2]
  Anti-CD28 Fab (SEQ ID NOs: 202, 203) signal: 1.76

## YCEGHSIQYMAKCL [Phage-252]
[1]
  Anti-CD28 Fab signal: 2.02

## YCDGHMGVYYWKCL [Phage-255]
[1]
  Anti-CD28 Fab signal: 2.01

## YCDGHSPEHIRKCL [Phage-282]
[1]
  Anti-CD28 Fab signal: 1.94

## YCDGHVAEYRDKCL [Phage-173]
[1]
  Anti-CD28 Fab signal: 2.17

## YCQGHLPEYMSKCL [Phage-258]
[1]
  Anti-CD28 Fab signal: 2.01

## YCAGHLEIYMNKCL [Phage-283]
[1]
  Anti-CD28 Fab signal: 1.94

## YCDGHMPEYMWKCL [Phage-170]
[1]
  Anti-CD28 Fab signal: 2.17

## YCDGHAPEYMEKCL [Phage-254]
[1]
  Anti-CD28 Fab signal: 2.01

## YCDGHSPEYMNKCL [Phage-399]
[2]
  Anti-CD28 Fab (SEQ ID NOs: 202, 203) signal: 1.75

## YCDGHLEQYRAKCL [Phage-273]
[1]
  Anti-CD28 Fab signal: 1.96

## YCDGHSPMYIGKCL [Phage-247]
[1]
  Anti-CD28 Fab signal: 2.03

## YCDGHAPEYMKKCL [Phage-306]
[2]
  Anti-CD28 Fab (SEQ ID NOs: 202, 203) signal: 1.9

## YCEGHLPIYLSKCL [Phage-285]
[1]
  Anti-CD28 Fab signal: 1.94

## YCEGHLPVYMWKCL [Phage-169]
[1]
  Anti-CD28 Fab signal: 2.17

## YCAGHSPEYMTKCL [Phage-171]
[1]
  Anti-CD28 Fab signal: 2.17

## YCEGHSPEYMTKCL [Phage-251]
[1]
  Anti-CD28 Fab signal: 2.02

## YCAGHSSEYIWKCL [Phage-362]
[2]
  Anti-CD28 Fab (SEQ ID NOs: 202, 203) signal: 1.82

## YCAGHSAEYMWKCL [Phage-433]
[2]
  Anti-CD28 Fab (SEQ ID NOs: 202, 203) signal: 1.71

## YCAGHSMEYMAKCL [Phage-435]
[2]
  Anti-CD28 Fab (SEQ ID NOs: 202, 203) signal: 1.71

## YCAGHSAEYMAKCL [Phage-419]
[2]
  Anti-CD28 Fab (SEQ ID NOs: 202, 203) signal: 1.73

## YCDGHIPEYLAKCL [Phage-391]
[2]
  Anti-CD28 Fab (SEQ ID NOs: 202, 203) signal: 1.76

## YCAGHLPEYLDKCL [Phage-430]
[2]
  Anti-CD28 Fab (SEQ ID NOs: 202, 203) signal: 1.71

## YCEGHSAEYIFKCL [Phage-354]
[2]
  Anti-CD28 Fab (SEQ ID NOs: 202, 203) signal: 1.83

## YCDGHLPEYLGKCL [Phage-274]
[1]
  Anti-CD28 Fab signal: 1.96

## YCDGHLVEYMSKCL [Phage-280]
[1]
  Anti-CD28 Fab signal: 1.95

## YCAGHLEEYMDKCL [Phage-311]
[2]
  Anti-CD28 Fab (SEQ ID NOs: 202, 203) signal: 1.9

## YCAGHSVEYMAKCL [Phage-275]
[1]
  Anti-CD28 Fab signal: 1.96

## YCDGHLPEYMWKCI [Phage-178]
[1]
  Anti-CD28 Fab signal: 2.15

## YCDGHEPQYLEKCL [Phage-308]
[2]
  Anti-CD28 Fab (SEQ ID NOs: 202, 203) signal: 1.9

## YCDGHSSEYIVKCL [Phage-352]
[2]
  Anti-CD28 Fab (SEQ ID NOs: 202, 203) signal: 1.83

## YCDGHVAEYMAKCL [Phage-177]
[1]
  Anti-CD28 Fab signal: 2.16

## YCDGHTQEYMAKCL [Phage-168]
[1]
  Anti-CD28 Fab signal: 2.17

## YCDGHAEEYMSKCL [Phage-309]
[2]
  Anti-CD28 Fab (SEQ ID NOs: 202, 203) signal: 1.9

## YCDGHSNEYMAKCL [Phage-175]
[1]
  Anti-CD28 Fab signal: 2.16

## YCDGHSLEYMAKCL [Phage-180]
[1]
  Anti-CD28 Fab signal: 2.15

## YCEGHLSQYMEKCL [Phage-281]
[1]
  Anti-CD28 Fab signal: 1.95

## YCDGHSAEYMWKCL [Phage-179]
[1]
  Anti-CD28 Fab signal: 2.15

## YCDGHSALYMWKCL [Phage-276]
[1]
  Anti-CD28 Fab signal: 1.96

## YCDGHSSEYMIKCL [Phage-277]
[1]
  Anti-CD28 Fab signal: 1.95

## YCDGHSAEYMQKCL [Phage-279]
[1]
  Anti-CD28 Fab signal: 1.95

## YCDGHSKEYMHKCL [Phage-307]
[2]
  Anti-CD28 Fab (SEQ ID NOs: 202, 203) signal: 1.9

— US20260274955A1 (JANUX THERAPEUTICS, published 2026)
